Data as given in patent US5595736.

How the values were obtained:
[1] = target: plasminogen
[2] = target: Lysine (Lys)-Plasminogen

Row | Binder | plasminogenolytic activity (PAU/mg) (PAU/mg (single chain)) [1] | ratio of the rates of Lys- to Glu-plasminogen activation in the presence of fibrin stimulator (Lys/Glu) (Lys/Glu (ratio of rates), single chain) [2]
1 | mt-PA6-D (enzyme, diglycosylated: alternate glycosylation consensus sequence at the amino acids surrounding position 33 (equivalent to amino acid 205 of t-PA) in Kringle 2, and the glycosylation consensus sequence within the Serine Protease domain) SYQGNSDCYFGQGSAYRGTHSLTESGASCLPWNGSMILIGKVYTAQNPSAQALGLGKHNYCRNPDGDAKPWCHVLKNRRLTWEYCDVPSCSTCGLRQYSQPQFRIKGGLFADIASHPWQAAIFAKHRRSPGERFLCGGILISSCWILSAAHCFQERFPPHHLTVILGRTYRVVPGEEEQKFEVEKYIVHKEFDDDTYDNDIALLQLKSDSSRCAQESSVVRTVCLPPADLQLPDWTECELSGYGKHEALSPFYSERLKEAHVRLYPSSRCTSQHLLNRTVTDNMLCAGDTRSGGPQANLHDACQGDSGGPLVCLNDGRMTLVGIISWGLGCGQKDVPGVYTKVTNYLDWIRDNMRP | 189 | 3.3
2 | mt-PA6-E (enzyme, diglycosylated: alternate glycosylation consensus sequence at the amino acids surrounding position 48 (equivalent to amino acid 219 of t-PA) in Kringle 2 (claim 2: monoglycosylated at amino acid residue number 47), and the glycosylation consensus sequence within the Serine Protease domain) SYQGNSDCYFGQGSAYRGTHSLTESGASCLPWNSMILIGKVYTAQNGSAQALGLGKHNYCRNPDGDAKPWCHVLKNRRLTWEYCDVPSCSTCGLRQYSQPQFRIKGGLFADIASHPWQAAIFAKHRRSPGERFLCGGILISSCWILSAAHCFQERFPPHHLTVILGRTYRVVPGEEEQKFEVEKYIVHKEFDDDTYDNDIALLQLKSDSSRCAQESSVVRTVCLPPADLQLPDWTECELSGYGKHEALSPFYSERLKEAHVRLYPSSRCTSQHLLNRTVTDNMLCAGDTRSGGPQANLHDACQGDSGGPLVCLNDGRMTLVGIISWGLGCGQKDVPGVYTKVTNYLDWIRDNMRP | 59 | 2
3 | Primary mt-PA6 (mt-PA6-P) (enzyme, glycosylated at amino acid 276 but not at amino acid 12) SYQGNSDCYFGNGSAYRGTHSLTESGASCLPWNSMILIGKVYTAQNPSAQALGLGKHNYCRNPDGDAKPWCHVLKNRRLTWEYCDVPSCSTCGLRQYSQPQFRIKGGLFADIASHPWQAAIFAKHRRSPGERFLCGGILISSCWILSAAHCFQERFPPHHLTVILGRTYRVVPGEEEQKFEVEKYIVHKEFDDDTYDNDIALLQLKSDSSRCAQESSVVRTVCLPPADLQLPDWTECELSGYGKHEALSPFYSERLKEAHVRLYPSSRCTSQHLLNRTVTDNMLCAGDTRSGGPQANLHDACQGDSGGPLVCLNDGRMTLVGIISWGLGCGQKDVPGVYTKVTNYLDWIRDNMRP | 87 | 1
4 | Variant mt-PA6 (mt-PA6-V) (enzyme, glycosylated at amino acids 276 and 12) SYQGNSDCYFGNGSAYRGTHSLTESGASCLPWNSMILIGKVYTAQNPSAQALGLGKHNYCRNPDGDAKPWCHVLKNRRLTWEYCDVPSCSTCGLRQYSQPQFRIKGGLFADIASHPWQAAIFAKHRRSPGERFLCGGILISSCWILSAAHCFQERFPPHHLTVILGRTYRVVPGEEEQKFEVEKYIVHKEFDDDTYDNDIALLQLKSDSSRCAQESSVVRTVCLPPADLQLPDWTECELSGYGKHEALSPFYSERLKEAHVRLYPSSRCTSQHLLNRTVTDNMLCAGDTRSGGPQANLHDACQGDSGGPLVCLNDGRMTLVGIISWGLGCGQKDVPGVYTKVTNYLDWIRDNMRP | 56 | 1.4
5 | mt-PA9 (enzyme, diglycosylated: obligatory glycosylation site located in the first exon of Kringle 1, and the site in the Serine Protease domain) SYQDTRATCYEDQGISYRGTWSTAESGAECTNWNSSALAQKPYSGRRPDAIRLGLGNHNYCRNPDGDAKPWCHVLKNRRLTWEYCDVPSCSTCGLRQYSQPQFRIKGGLFADIASHPWQAAIFAKHRRSPGERFLCGGILISSCWILSAAHCFQERFPPHHLTVILGRTYRVVPGEEEQKFEVEKYIVHKEFDDDTYDNDIALLQLKSDSSRCAQESSVVRTVCLPPADLQLPDWTECELSGYGKHEALSPFYSERLKEAHVRLYPSSRCTSQHLLNRTVTDNMLCAGDTRSGGPQANLHDACQGDSGGPLVCLNDGRMTLVGIISWGLGCGQKDVPGVYTKVTNYLDWIRDNMRP | 50 | 2
